Laboratory results: patent publication US20220002423A1 (GENERAL HOSPITAL, published 2022)

What was measured:
[1] = target: T1, Amino acid residues 106-125 of human TNFR2 (human); experiment: ELISA, antibody alone
T1 sequence (peptide): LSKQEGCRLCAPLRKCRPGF

[2] = target: T2, Amino acid residues 26-45 of human TNFR2 (human); experiment: ELISA, antibody alone
T2 sequence (peptide): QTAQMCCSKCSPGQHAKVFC

[3] = target: T3, Amino acid residues 34-53 of human TNFR2 (human); experiment: ELISA, antibody alone
T3 sequence (peptide): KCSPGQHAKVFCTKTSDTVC

[4] = target: T4, Amino acid residues 98-117 of human TNFR2 (human); experiment: ELISA, antibody alone
T4 sequence (peptide): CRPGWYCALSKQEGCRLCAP

[5] = target: Full-length human TNFR2 (human) (UniProt P20333); experiment: ELISA; categorical score, 0 lowest to 4 highest affinity
[6] = target: T5, Amino acid residues 66-85 of human TNFR2 (human); experiment: ELISA, antibody with TNFα added
T5 peptide: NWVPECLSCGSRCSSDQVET

[7] = target: T6, Amino acid residues 74-93 of human TNFR2 (human); experiment: ELISA, antibody with TNFα added
T6 peptide: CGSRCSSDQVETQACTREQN

[8] = target: T7, Amino acid residues 82-101 of human TNFR2 (human); experiment: ELISA, coated linear peptides 1 µg/well
T7 peptide: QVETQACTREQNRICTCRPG
Description: (§1) ELISA was also used to determine linear epitopes present on the extracellular surface of TNFR2. Linear peptides corresponding to various regions within the TNFR2 primary sequence were purchased from GenScript (Piscataway, N.J.), diluted in coating buffer and placed on Immulon 4HBX Flat Bottom Microtiter Plates (Thermo Scientific) at a concentration of 1 μg/well. Primary TNFR2 agonistic antibodies (0.1 μg/well) were incubated with substrates. Secondary antibodies against rodent IgG were used to detect the primary antibodies. Absorbance was measured using the SPECTRAMAX® 190 Absorbance Plate Reader and analyzed with SoftMax Pro 6.3 (Molecular Devices).

[9] = target: T8, Amino acid residues 114-133 of human TNFR2 (human); experiment: ELISA, coated linear peptides 1 µg/well
T8 peptide: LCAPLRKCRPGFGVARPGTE
Description: as §1

[10] = target: T9, Amino acid residues 122-141 of human TNFR2 (human); experiment: ELISA, coated linear peptides 1 µg/well
T9 peptide: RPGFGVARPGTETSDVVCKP
Description: as §1

[11] = target: T10, Amino acid residues 130-149 of human TNFR2 (human); experiment: ELISA, coated linear peptides 1 µg/well
T10 peptide: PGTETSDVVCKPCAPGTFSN
Description: as §1

[12] = target: T11, Amino acid residues 138-157 of human TNFR2 (human); experiment: ELISA, coated linear peptides 1 µg/well
T11 peptide: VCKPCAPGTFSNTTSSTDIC
Description: as §1

[13] = target: T12, Amino acid residues 146-165 of human TNFR2 (human); experiment: ELISA, coated linear peptides 1 µg/well
T12 peptide: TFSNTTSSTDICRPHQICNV
Description: as §1

[14] = target: T13, Amino acid residues 154-174 of human TNFR2 (human); experiment: ELISA, coated linear peptides 1 µg/well
T13 peptide: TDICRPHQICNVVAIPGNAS
Description: as §1

[15] = target: T14, Amino acid residues 162-181 of human TNFR2 (human); experiment: ELISA, coated linear peptides 1 µg/well
T14 peptide: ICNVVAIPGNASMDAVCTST
Description: as §1

[16] = target: T15, Amino acid residues 1-20 of human TNFR2 (human); experiment: ELISA, coated linear peptides 1 µg/well
T15 construct: 20-mer fragment
T15 peptide: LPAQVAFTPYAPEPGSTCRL
Description: as §1

[17] = target: T1, Amino acid residues 106-125 of human TNFR2 (human); experiment: ELISA on TNFR2 peptide fragment; categorical score, 0 lowest to 4 highest affinity
[18] = target: T16, Amino acid residues 108-127 of human TNFR2 (human); experiment: as above
T16 sequence (peptide): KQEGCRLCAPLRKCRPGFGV

[19] = target: T2, Amino acid residues 26-45 of human TNFR2 (human); experiment: as above
[20] = target: T3, Amino acid residues 34-53 of human TNFR2 (human); experiment: as above
[21] = target: T4, Amino acid residues 98-117 of human TNFR2 (human); experiment: as above
[22] = target: T1, Amino acid residues 106-125 of human TNFR2 (human); experiment: ELISA, coated linear peptides 1 µg/well, antibody 0.1 µg/well
[23] = target: T16, Amino acid residues 108-127 of human TNFR2 (human); experiment: as above
[24] = target: T2, Amino acid residues 26-45 of human TNFR2 (human); experiment: as above
[25] = target: T4, Amino acid residues 98-117 of human TNFR2 (human); experiment: as above
[26] = target: T10, Amino acid residues 130-149 of human …; experiment: ELISA on TNFR2 peptide fragment; categorical score, 0 lowest to 4 highest affinity

B1: agonistic TNFR2 antibody TNFRAG1 (antibody, V domains shown)
VH: EVQLQQFGAELVKPGASVKISCKASGYTFTDYNIDWVKQSHGKSLEWIGDINPNYDSTSYSQKFRGKATLTVDKSSSTAYMELRSLTSEDTAVYYCARGNSWYFDVWGAGTTVTVSS
VL: QIVLTQSPALMSASPGEKVTMTCSASSSVRYMYWYQQKPRSSPKPWIYLTSNLASGVPARFSGSGSGTSYSLTISSMEAEDAATYYCQQWSSNPLTFGAGTKLELK
notes: the primary antibodies were detected with secondary antibodies against rodent IgG; also called monoclonal TNFR2 antibody TNFRAG1; TNFR2 agonist antibody
- Reading [1]: 2
- Affinity [2]: 1
- Reading [2]: 0.1
- Affinity [3]: 1
- Affinity [4]: 1
- Reading [4]: 2
- Affinity Score [5]: 4
- binding result [6]: no binding
- binding result [7]: no binding
- binding result [8]: no binding (tested: 0.1 µg/well)
- binding result [9]: no binding (tested: 0.1 µg/well)
- binding result [10]: no binding (tested: 0.1 µg/well)
- binding result [11]: no binding (tested: 0.1 µg/well)
- binding result [12]: no binding (tested: 0.1 µg/well)
- binding result [13]: no binding (tested: 0.1 µg/well)
- binding result [14]: no binding (tested: 0.1 µg/well)
- binding result [15]: no binding (tested: 0.1 µg/well)
- binding result [16]: no binding (tested: 0.1 µg/well)
- Affinity Score [17]: 2
- Affinity Score [18]: 2
- Affinity Score [19]: 1
- Affinity Score [20]: 0
- Affinity Score [21]: 1
- Affinity [22]: 2
- Reading [22]: 0
- Affinity [23]: 2
- Reading [23]: 0
- Affinity [24]: 1
- Reading [24]: 0
- Affinity [25]: 1
- Reading [25]: 0
- Affinity Score [26]: 0
